The values below are quoted from earlier work in PMC4676407.

The target in the data set is Akt kinase domain kinase domain (Homo sapiens) (UniProt P31749).

As a reminder, the Kd is a measure of binding affinity in units of concentration. Take “Akt C-terminal peptide C-terminus (from UniProt P31749)”: the dissociation constant (Kd) is more than 5 mM.
